The values below come from PMC7998035, “Restoration of the healing microenvironment in diabetic wounds with matrix-binding IL-1 receptor antagonist” (Communications Biology, 2021).

To fix the notation:
B3: human fibrinogen (complex)
chain 1: ADSGEGDFLAEGGGVRGPRVVERHQSACKDSDWPFCSDEDWNYKCPSGCRMKGLIDEVNQDFTNRINKLKNSLFEYQKNNKDSHSLTTNIMEILRGDFSSANNRDNTYNRVSEDLRSRIEVLKRKVIEKVQHIQLLQKNVRAQLVDMKRLEVDIDIKIRSCRGSCSRALAREVDLKDYEDQQKQLEQVIAKDLLPSRDRQHLPLIKMKPVPDLVPGNFKSQLQKVPPEWKALTDMPQMRMELERPGGNEITRGGSTSYGTGSETESPRNPSSAGSWNSGSSGPGSTGNRNPGSSGTGGTATWKPGSSGPGSTGSWNSGSSGTGSTGNQNPGSPRPGSTGTWNPGSSERGSAGHWTSESSVSGSTGQWHSESGSFRPDSPGSGNARPNNPDWGTFEEVSGNVSPGTRREYHTEKLVTSKGDKELRTGKEKVTSGSTTTTRRSCSKTVTKTVIGPDGHKEVTKEVVTSEDGSDCPEAMDLGTLSGIGTLDGFRHRHPDEAAFFDTASTGKTFPGFFSPMLGEFVSETESRGSESGIFTNTKESSSHHPGIAEFPSRGKSSSYSKQFTSSTSYNRGDSTFESKSYKMADEAGSEADHEGTHSTKRGHAKSRPV
chain 2: QGVNDNEEGFFSARGHRPLDKKREEAPSLRPAPPPISGGGYRARPAKAAATQKKVERKAPDAGGCLHADPDLGVLCPTGCQLQEALLQQERPIRNSVDELNNNVEAVSQTSSSSFQYMYLLKDLWQKRQKQVKDNENVVNEYSSELEKHQLYIDETVNSNIPTNLRVLRSILENLRSKIQKLESDVSAQMEYCRTPCTVSCNIPVVSGKECEEIIRKGGETSEMYLIQPDSSVKPYRVYCDMNTENGGWTVIQNRQDGSVDFGRKWDPYKQGFGNVATNTDGKNYCGLPGEYWLGNDKISQLTRMGPTELLIEMEDWKGDKVKAHYGGFTVQNEANKYQISVNKYRGTAGNALMDGASQLMGENRTMTIHNGMFFSTYDRDNDGWLTSDPRKQCSKEDGGGWWYNRCHAANPNGRYYWGGQYTWDMAKHGTDDGVVWMNWKGSWYSMRKMSMKIRPFFPQQ
chain 3: YVATRDNCCILDERFGSYCPTTCGIADFLSTYQTKVDKDLQSLEDILHQVENKTSEVKQLIKAIQLTYNPDESSKPNMIDAATLKSRKMLEEIMKYEASILTHDSSIRYLQEIYNSNNQKIVNLKEKVAQLEAQCQEPCKDTVQIHDITGKDCQDIANKGAKQSGLYFIKPLKANQQFLVYCEIDGSGNGWTVFQKRLDGSVDFKKNWIQYKEGFGHLSPTGTTEFWLGNEKIHLISTQSAIPYALRVELEDWNGRTSTADYAMFKVGPEADKYRLTYAYFAGGDAGDAFDGFDFGDDPSDKFFTSHNGMQFSTWDNDNDKFEGNCAEQDGSGWWMNKCHAGHLNGVYYQGGTYSKASTPNGYDNGIIWATWKTRWYSMKKTTMKIIPFNRLTIGEGQQHHLGGAKQAGDV
modifications: Plasma-derived intact fibrinogen (Enzyme Research Laboratories), fibrinopeptides A and B retained; disulfide-linked (AαBβγ)2 hexamer, N-glycosylated, Ca2+-bound. By convention, the major circulating …

What all share (experiment): ELISA; ECM protein coated on the plate (100 nM in PBS, 1 h, 37 °C), blocked with 1% BSA in PBS-T; IL-1Ra or PDGF-BB variants at 0 to 100 nM in PBS-T with 0.1% BSA, 1 h, room temperature; bound protein detected with biotinylated antibodies (DuoSet); specific binding fitted with a one site-specific binding model; means of 3 independent experiments
Common to all, as to details: both partners purified

One test concerns the target T1, human vitronectin (human, UniProt P04004 20-478).
T1 construct: vitronectin, human; also called Vn; source: bought: Peprotech

Another test deals with T2, human tenascin C (human, UniProt P24821 23-2201).
T2 construct: tenascin C, human; also called TnC; source: bought: R&D Systems

The target of a further test is human plasma fibronectin (human).
The target of the test “human fibrinogen” is B3.
Another test addresses T3, IL-1Ra/PlGF123-141.
T3 construct: interleukin-1 receptor antagonist; source: E. coli BL21 (DE3), pET-22b, soluble fraction purified (chelating SFF(Ni) column)

In the next test the target is T4, PDGF-BB/PlGF123-141.
T4 construct: platelet-derived growth factor subunit B; also called engineered PDGF-BB
T4 sequence (P02671 36-866): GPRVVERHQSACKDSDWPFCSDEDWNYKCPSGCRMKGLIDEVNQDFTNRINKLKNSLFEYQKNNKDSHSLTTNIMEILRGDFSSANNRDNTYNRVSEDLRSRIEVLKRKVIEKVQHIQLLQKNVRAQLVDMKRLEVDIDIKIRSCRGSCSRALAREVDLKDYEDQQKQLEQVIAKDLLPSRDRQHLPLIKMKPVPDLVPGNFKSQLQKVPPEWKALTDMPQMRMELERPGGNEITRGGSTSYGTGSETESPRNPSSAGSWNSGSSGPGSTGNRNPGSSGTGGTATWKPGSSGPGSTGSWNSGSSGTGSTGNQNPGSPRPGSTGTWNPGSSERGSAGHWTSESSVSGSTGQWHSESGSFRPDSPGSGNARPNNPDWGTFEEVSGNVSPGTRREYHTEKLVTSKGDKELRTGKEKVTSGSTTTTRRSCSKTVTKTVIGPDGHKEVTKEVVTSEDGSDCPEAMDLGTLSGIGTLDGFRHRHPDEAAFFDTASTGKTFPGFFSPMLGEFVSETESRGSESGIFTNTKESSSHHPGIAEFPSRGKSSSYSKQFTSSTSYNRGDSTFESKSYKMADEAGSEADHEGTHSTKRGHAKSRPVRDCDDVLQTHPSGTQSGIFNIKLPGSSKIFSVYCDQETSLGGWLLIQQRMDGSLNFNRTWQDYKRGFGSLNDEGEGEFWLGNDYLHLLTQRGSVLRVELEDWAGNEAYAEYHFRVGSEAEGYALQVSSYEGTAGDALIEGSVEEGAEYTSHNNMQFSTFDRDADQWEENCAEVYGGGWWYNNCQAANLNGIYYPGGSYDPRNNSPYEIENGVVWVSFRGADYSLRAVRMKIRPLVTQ

human plasma fibronectin (human), sequence (P02751 other isoform, or with tags, fused parts or gaps): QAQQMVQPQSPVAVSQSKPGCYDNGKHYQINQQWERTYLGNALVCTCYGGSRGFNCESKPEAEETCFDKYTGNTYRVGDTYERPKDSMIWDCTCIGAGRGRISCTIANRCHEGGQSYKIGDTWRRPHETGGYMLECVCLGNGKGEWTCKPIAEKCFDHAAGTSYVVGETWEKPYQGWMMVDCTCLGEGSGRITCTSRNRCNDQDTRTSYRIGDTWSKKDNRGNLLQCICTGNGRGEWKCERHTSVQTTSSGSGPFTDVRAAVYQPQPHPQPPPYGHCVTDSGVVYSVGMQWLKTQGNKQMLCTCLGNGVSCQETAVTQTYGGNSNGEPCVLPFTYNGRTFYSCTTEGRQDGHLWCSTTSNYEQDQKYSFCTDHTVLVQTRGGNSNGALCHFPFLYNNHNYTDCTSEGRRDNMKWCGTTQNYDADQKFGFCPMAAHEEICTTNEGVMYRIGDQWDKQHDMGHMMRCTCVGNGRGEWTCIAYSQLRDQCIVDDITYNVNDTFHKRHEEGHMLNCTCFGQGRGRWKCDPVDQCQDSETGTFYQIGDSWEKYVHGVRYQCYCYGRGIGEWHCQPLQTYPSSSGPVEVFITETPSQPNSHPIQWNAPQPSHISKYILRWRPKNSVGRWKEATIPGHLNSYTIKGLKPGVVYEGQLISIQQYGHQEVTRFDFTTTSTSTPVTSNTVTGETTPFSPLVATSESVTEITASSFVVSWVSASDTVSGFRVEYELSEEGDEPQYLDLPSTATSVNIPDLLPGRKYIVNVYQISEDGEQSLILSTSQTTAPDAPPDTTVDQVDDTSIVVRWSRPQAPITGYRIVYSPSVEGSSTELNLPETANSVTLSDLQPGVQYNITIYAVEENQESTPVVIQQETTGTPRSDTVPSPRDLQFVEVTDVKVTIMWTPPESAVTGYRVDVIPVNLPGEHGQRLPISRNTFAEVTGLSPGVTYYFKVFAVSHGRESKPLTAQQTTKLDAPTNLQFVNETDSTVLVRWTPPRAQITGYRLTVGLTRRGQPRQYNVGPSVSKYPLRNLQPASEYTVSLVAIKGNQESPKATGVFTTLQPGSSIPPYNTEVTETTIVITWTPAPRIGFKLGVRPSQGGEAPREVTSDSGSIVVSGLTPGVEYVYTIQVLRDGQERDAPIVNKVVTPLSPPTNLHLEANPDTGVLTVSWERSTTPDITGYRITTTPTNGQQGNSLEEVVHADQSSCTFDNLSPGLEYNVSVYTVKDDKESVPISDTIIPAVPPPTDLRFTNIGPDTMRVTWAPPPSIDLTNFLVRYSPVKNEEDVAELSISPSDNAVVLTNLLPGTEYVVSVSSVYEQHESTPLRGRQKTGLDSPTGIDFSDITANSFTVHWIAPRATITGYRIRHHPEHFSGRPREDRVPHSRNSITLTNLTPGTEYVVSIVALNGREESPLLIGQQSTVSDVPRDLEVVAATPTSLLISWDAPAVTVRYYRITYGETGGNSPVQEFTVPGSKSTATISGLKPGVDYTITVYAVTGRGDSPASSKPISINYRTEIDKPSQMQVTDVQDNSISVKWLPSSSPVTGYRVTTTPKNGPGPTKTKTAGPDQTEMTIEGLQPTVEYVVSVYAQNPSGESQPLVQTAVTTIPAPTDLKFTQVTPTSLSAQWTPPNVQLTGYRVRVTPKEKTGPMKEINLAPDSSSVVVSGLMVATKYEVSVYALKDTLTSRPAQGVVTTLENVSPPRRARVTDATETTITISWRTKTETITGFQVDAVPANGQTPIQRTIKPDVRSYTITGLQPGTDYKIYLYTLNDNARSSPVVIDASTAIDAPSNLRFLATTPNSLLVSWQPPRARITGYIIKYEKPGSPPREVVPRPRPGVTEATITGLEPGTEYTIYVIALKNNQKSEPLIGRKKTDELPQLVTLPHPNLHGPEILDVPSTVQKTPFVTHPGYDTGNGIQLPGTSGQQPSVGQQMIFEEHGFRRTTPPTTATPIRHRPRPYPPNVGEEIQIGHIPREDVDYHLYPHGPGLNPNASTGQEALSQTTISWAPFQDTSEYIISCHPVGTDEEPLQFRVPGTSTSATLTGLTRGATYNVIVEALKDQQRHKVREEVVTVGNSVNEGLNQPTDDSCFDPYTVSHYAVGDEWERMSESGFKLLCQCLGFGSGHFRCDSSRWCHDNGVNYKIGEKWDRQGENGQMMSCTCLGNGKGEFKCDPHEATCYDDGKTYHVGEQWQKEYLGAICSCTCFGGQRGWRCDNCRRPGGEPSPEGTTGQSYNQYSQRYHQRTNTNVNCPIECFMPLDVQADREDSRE
T1 sequence (P04004 20-478): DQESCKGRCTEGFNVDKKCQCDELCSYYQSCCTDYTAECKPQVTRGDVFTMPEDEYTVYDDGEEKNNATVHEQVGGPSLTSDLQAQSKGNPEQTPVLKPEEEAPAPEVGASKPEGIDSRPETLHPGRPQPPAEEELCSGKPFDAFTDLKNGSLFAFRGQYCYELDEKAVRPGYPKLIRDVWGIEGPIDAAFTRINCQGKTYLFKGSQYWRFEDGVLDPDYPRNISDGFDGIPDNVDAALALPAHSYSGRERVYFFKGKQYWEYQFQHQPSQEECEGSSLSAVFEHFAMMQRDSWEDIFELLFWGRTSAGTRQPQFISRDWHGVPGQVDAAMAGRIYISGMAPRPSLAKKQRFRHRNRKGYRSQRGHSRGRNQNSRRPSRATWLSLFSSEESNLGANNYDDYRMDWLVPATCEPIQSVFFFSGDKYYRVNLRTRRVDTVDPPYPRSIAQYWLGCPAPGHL
human fibrinogen, sequence (P02671 36-866): as the sequence (P02671 36-866) above
T3 sequence (P18510 whole entry): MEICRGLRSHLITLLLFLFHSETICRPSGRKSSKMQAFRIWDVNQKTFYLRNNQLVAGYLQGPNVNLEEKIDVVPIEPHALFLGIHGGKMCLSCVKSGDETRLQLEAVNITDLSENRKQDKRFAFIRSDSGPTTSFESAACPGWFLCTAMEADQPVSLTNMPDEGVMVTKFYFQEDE

B1: murine wild-type IL-1 receptor antagonist (IL-1Ra) (natural protein, mouse, UniProt P25085 27-178, looked up)
chain: RPSGKRPCKMQAFRIWDTNQKTFYLRNNQLIAGYLQGPNIKLEEKIDMVPIDLHSVFLGIHGGKLCLSCAKSGDDIKLQLEEVNITDLSKNKEEDKRFTFIRSEKGPTTSFESAACPGWFLCTTLEADRPVSLTNTPEEPLIVTKFYFQEDQ
notes: interleukin-1 receptor antagonist protein, mouse; also called interleukin-1 receptor antagonist
For B1, the dissociation constant (Kd) in the test with human vitronectin came to 0.0732 µM; with human tenascin C, 0.113 µM; with human plasma fibronectin, 0.129 µM; with human fibrinogen it was 0.663 µM.

B2: murine wild-type platelet-derived growth factor-BB (PDGF-BB) (ligand, mouse, UniProt P31240 82-190, looked up)
chain: SLGSLAAAEPAVIAECKTRTEVFQISRNLIDRTNANFLVWPPCVEVQRCSGCCNNRNVQCRASQVQMRPVQVRKIEIVRKKPIFKKATVTLEDHLACKCETIVTPRPVT
notes: platelet-derived growth factor subunit B, mouse; PDGF-BB occurs as a dimer; source: bought: Peprotech
B2: the Kd was 0.0321 µM with human vitronectin, 0.0943 µM in the test with human tenascin C, 0.0675 µM with human plasma fibronectin and 0.206 µM with human fibrinogen.

B3: the Kd in the test with IL-1Ra/PlGF123-141 came out at 0.0435 µM; with PDGF-BB/PlGF123-141, 0.0167 µM.

One may read the Kd as the equilibrium constant for the complex coming apart. The low end stands for a tighter complex, the high end for a looser complex.
